T1: Human GPA33 on GPA33+ colorectal cancer cell lines (Colo 205, LS 174T, SW 1222) (human, UniProt Q99795 22-319)
T1 construct: Endogenous GPA33 on human colorectal cancer cell lines; also called surface human GPA33; GPA33+ tumor cell lines
T1 sequence: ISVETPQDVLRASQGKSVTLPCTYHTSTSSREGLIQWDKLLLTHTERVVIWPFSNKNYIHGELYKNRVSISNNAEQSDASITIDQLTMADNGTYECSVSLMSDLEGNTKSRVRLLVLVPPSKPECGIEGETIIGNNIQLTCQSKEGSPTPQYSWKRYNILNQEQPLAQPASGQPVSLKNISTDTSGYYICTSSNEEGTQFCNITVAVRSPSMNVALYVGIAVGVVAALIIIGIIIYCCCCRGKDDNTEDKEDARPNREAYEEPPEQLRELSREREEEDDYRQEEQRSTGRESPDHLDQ

T2: Human GPA33 (recombinant protein, Novoprotein) (human, UniProt Q99795 22-235)
T2 construct: Bought recombinant protein immobilized on a CM5 chip; also called GPA33 antigen; tumor antigen GPA33
T2 sequence: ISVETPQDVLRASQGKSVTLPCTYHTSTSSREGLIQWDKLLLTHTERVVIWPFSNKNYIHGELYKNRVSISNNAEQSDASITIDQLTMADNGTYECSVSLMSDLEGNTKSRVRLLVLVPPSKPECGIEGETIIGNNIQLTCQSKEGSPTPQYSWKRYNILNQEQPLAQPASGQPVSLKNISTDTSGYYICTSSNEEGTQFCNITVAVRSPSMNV

B1: TC170 (bispecific antibody)
chain: EVQLVESGGGLVKPGGSLRLSCAASGFAFSTYDMSWVRQAPGKGLEWVSTISSGGSYTYYADSVKGRFTISRDNAKNSLYLQMNSLRAEDTAVYYCAPTTVVPFAYWGQGTLVTVSAGGGGSGGGGSGGGGSGGGGSGGGGSGGGGSDIQMTQSPSSLSASVGDRVTITCKASQNVRTVVAWYQQKPGKAPKTLIYLASNRHTGVPSRFSGSGSGTEFTLTISNLQPEDFATYYCLQHWSYPLTFGSGTKLEVKRGGGGSGGGGSGGGGSGGGGSHVQLVESGGGLVQPGGSLRLSCAASGFSLTDYGVHWVRQAPGKGLEWLGVIWSGGGTAYNTALISRFTISRDNSKNTLYLQMNSLRAEDTAVYYCARRGSYPYNYFDAWGCGTLVTVSSGGGGSGGGGSGGGGSGGGGSGGGGSGGGGSQAVVTQEPSLTVSPGGTVTLTCGSSTGAVTASNYANWVQQKPGQCPRGLIGGHNNRPPGVPARFSGSLLGGKAALTLLGAQPEDEAEYYCALWYSDHWVIGGGTKLTVLGTPLGDTTHTSGKPLDGEYFTLQIRGRERFEMFRELNEALELKDAQAGKEPGGSGGAPHHHHHH
notes: Single chain: anti-GPA33 scFv, anti-DOTA (C825) scFv, p53 SADA domain; The copy number 4 comes from the p53 tetramerization domain; the self-assembling and disassembling state depends on concentration; also called GPA33 SADA (TC170); GPA33xDOTA SADA
B2: BC015 (G3A H1L4) (bispecific antibody, human IgG1, kappa, N297A)
heavy: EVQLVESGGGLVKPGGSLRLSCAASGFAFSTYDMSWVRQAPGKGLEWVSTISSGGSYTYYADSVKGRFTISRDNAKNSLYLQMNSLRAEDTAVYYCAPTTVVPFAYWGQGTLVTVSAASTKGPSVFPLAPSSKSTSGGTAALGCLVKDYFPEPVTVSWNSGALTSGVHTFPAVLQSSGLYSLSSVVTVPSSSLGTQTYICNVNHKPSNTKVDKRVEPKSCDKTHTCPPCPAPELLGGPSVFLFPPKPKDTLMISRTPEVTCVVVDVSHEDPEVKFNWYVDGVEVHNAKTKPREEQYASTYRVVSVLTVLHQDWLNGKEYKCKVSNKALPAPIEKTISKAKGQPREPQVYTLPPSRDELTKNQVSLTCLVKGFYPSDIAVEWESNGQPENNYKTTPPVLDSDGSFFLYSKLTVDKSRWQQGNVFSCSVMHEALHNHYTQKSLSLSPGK
light: DIQMTQSPSSLSASVGDRVTITCKASQNVRTVVAWYQQKPGKAPKTLIYLASNRHTGVPSRFSGSGSGTEFTLTISNLQPEDFATYYCLQHWSYPLTFGSGTKLEVKRTVAAPSVFIFPPSDEQLKSGTASVVCLLNNFYPREAKVQWKVDNALQSGNSQEKSVTEQDSKDSTYSLSSTLTLSKADYEKHKVYACEVTHQGLSSPVTKSFNRGECTSGGGGSGGGGSGGGGSHVQLVESGGGLVQPGGSLRLSCAASGFSLTDYGVHWVRQAPGKGLEWLGVIWSGGGTAYNTALISRFTISRDNSKNTLYLQMNSLRAEDTAVYYCARRGSYPYNYFDAWGCGTLVTVSSGGGGSGGGGSGGGGSGGGGSGGGGSGGGGSQAVVTQEPSLTVSPGGTVTLTCGSSTGAVTASNYANWVQQKPGQCPRGLIGGHNNRPPGVPARFSGSLLGGKAALTLLGAQPEDEAEYYCALWYSDHWVIGGGTKLTVLG
notes: GPA33xDOTA IgG-[L]-scFv with human IgG1 constant region carrying N297A and K322A; The anti-DOTA scFv is fused to the C-terminus of the light chain; also called BC177; GPA33 BsAb-IgG (BC177)
B3: TC171 (bispecific antibody)
chain: DIQMTQSPSSLSASVGDRVTITCKASQNVRTVVAWYQQKPGKAPKTLIYLASNRHTGVPSRFSGSGSGTEFTLTISNLQPEDFATYYCLQHWSYPLTFGSGTKLEVKRGGGGSGGGGSGGGGSGGGGSGGGGSGGGGSEVQLVESGGGLVKPGGSLRLSCAASGFAFSTYDMSWVRQAPGKGLEWVSTISSGGSYTYYADSVKGRFTISRDNAKNSLYLQMNSLRAEDTAVYYCAPTTVVPFAYWGQGTLVTVSAGGGGSGGGGSGGGGSGGGGSHVQLVESGGGLVQPGGSLRLSCAASGFSLTDYGVHWVRQAPGKGLEWLGVIWSGGGTAYNTALISRFTISRDNSKNTLYLQMNSLRAEDTAVYYCARRGSYPYNYFDAWGCGTLVTVSSGGGGSGGGGSGGGGSGGGGSGGGGSGGGGSQAVVTQEPSLTVSPGGTVTLTCGSSTGAVTASNYANWVQQKPGQCPRGLIGGHNNRPPGVPARFSGSLLGGKAALTLLGAQPEDEAEYYCALWYSDHWVIGGGTKLTVLGTPLGDTTHTSGKPLDGEYFTLQIRGRERFEMFRELNEALELKDAQAGKEPGGSGGAPHHHHHH
notes: As TC170, with the other VH/VL orientation of the anti-GPA33 scFv; Carries the p53 SADA (tetramerization) domain; also called GPA33xDOTA SADA

Assays:
[1] = target: T1, Human GPA33 on GPA33+ colorectal cancer …; test: flow cytometry, LS 174T cells
[2] = target: T1, Human GPA33 on GPA33+ colorectal cancer …; test: FACS binding to SW1222 cells (GPA33+); reference row
[3] = target: T1, Human GPA33 on GPA33+ colorectal cancer …; test: FACS binding to Colo205 cells (GPA33+); reference row
[4] = target: T2, Human GPA33 (recombinant protein, …); test: SPR (Biacore), human GPA33 immobilized on CM5 chip, two-state fit
Method: (§1) SPR analysis. Human GPA33 (Novoprotein, Summit, NJ) was immobilized on CM5 chips. Five concentrations of 2-fold serially diluted huA33 IgG1 or huA33-BsAbs (starting at 20 nM) were flowed over the chip using a Biacore™ T100 system (GE Healthcare, Chicago, IL). Binding kinetics of huA33 were measured at 25° C. and binding kinetics of huA33-BsAbs were measured at both 25° C. and 37° C. The sensorgrams were fitted with two state binding model for both to derive kinetic parameters.

[5] = target: T1, Human GPA33 on GPA33+ colorectal cancer …; test: flow cytometry, Colo 205 cells; Colo 205 cells
[6] = target: T2, Human GPA33 (recombinant protein, …); test: SPR (Biacore), human GPA33 immobilized on CM5 chip, two-state fit, ka1
Method: as §1

[7] = target: T1, Human GPA33 on GPA33+ colorectal cancer …; test: FACS binding to LS174T cells (GPA33+); reference row
[8] = target: T1, Human GPA33 on GPA33+ colorectal cancer …; test: FACS titration on Colo205 cells, geometric mean MFI (the text prints 0.74 nM and calls it IC50)
[9] = target: T1, Human GPA33 on GPA33+ colorectal cancer …; test: flow cytometry, SW 1222 cells
[10] = target: T2, Human GPA33 (recombinant protein, …); test: SPR (Biacore), human GPA33 immobilised on the chip; reference row
In short: (§2)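 Recombinant human GPA33 (Novoprotein) was immobilised on a CM5 sensor chip, and antibodies were injected at five concentrations in 2-fold serial dilutions from 20 nM. Affinity (KD) was determined by surface plasmon resonance on a Biacore system, with kinetic fitting of the sensorgrams giving rate constants and KD. Every KD is reported as a ratio to the KD of a reference molecule.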

[11] = target: T2, Human GPA33 (recombinant protein, …); test: SPR (Biacore), human GPA33 immobilized on CM5 chip, two-state fit, kd1
In short: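 The off-rate (kd1) was determined by surface plasmon resonance against immobilised recombinant human GPA33, using a two-state binding model fit. Antibodies were tested on a CM5 chip in a Biacore T100 at five concentrations, from 20 nM in 2-fold serial dilutions. The parent IgG1 was measured at 25° C, and the bispecific formats at 25° C and 37° C.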

[12] = target: T1, Human GPA33 on GPA33+ colorectal cancer …; test: FACS titration on Colo205 cells, geometric mean MFI (same value as in FIG. 4A; the text prints 0.74 nM)
[13] = target: T1, Human GPA33 on GPA33+ colorectal cancer …; test: FACS titration on Colo205 cells, geometric mean MFI
[14] = target: T1, Human GPA33 on GPA33+ colorectal cancer …; test: FACS titration on LS174T cells, geometric mean MFI [Cont.]
[15] = target: T2, Human GPA33 (recombinant protein, …); test: SPR (Biacore), human GPA33 immobilised on the chip; reference row; remark: listed apart in the source
In short: as §2

[16] = target: T1, Human GPA33 on GPA33+ colorectal cancer …; test: FACS titration on SW1222 cells, geometric mean MFI [Cont.]
[17] = target: T1, Human GPA33 on GPA33+ colorectal cancer …; test: FACS titration on SW1222 cells, geometric mean MFI (same value as in FIG. 4A; the text prints 1.78 nM) [contd.]
[18] = target: T1, Human GPA33 on GPA33+ colorectal cancer …; test: FACS titration on SW1222 cells, geometric mean MFI (the text prints 1.78 nM and calls it IC50) [Cont.]
[19] = target: T1, Human GPA33 on GPA33+ colorectal cancer …; test: FACS binding to SW1222 cells (GPA33+); the text prints 1.78 nM for this pair
[20] = target: T1, Human GPA33 on GPA33+ colorectal cancer …; test: FACS binding to LS174T cells (GPA33+)
[21] = target: T1, Human GPA33 on GPA33+ colorectal cancer …; test: FACS binding to Colo205 cells (GPA33+)
[22] = target: T2, Human GPA33 (recombinant protein, …); test: SPR (Biacore), human GPA33 immobilised on the chip; KD relative to that of TC170
In short: as §2

[23] = target: T1, Human GPA33 on GPA33+ colorectal cancer …; test: FACS binding to SW1222 cells (GPA33+)

| Binder | IC50 [1] [nM] | Kd [4] [nM] | ka2 [4] [s⁻¹] | kd2 [4] [s⁻¹] | EC50 [5] [nM] | kon [6] [M⁻¹ s⁻¹] | IC50 [9] [nM] | koff [11] [s⁻¹] | also measured |
| --- | --- | --- | --- | --- | --- | --- | --- | --- | --- |
| B1 | 0.31 | 0.0158 | 0.00646 | 0.000538 | 0.74 | 3.54e+06 | 1.65 | 0.000728 | fold change of binding EC50 (relative to TC170, lower is better) [2]: 1; fold change of binding EC50 (relative to TC170, lower is better) [3]: 1; fold change of binding EC50 (relative to TC170, lower is better) [7]: 1; EC50 [8]: 0.73 nM; Fold change of KD (relative to TC170, lower is better) [10]: 1; EC50 [12]: 0.73 nM |
| B2 | – | 0.118 | 0.00307 | 0.00177 | – | 4.36e+06 | – | 0.00141 | EC50 [13]: 1.04 nM; EC50 [14]: 0.39 nM; Fold change of KD (relative to BC015, lower is better) [15]: 1; EC50 [16]: 0.71 nM |
| B3 | 0.56 | 0.023 | 0.00663 | 0.000628 | 1.04 | 3.34e+06 | 1.78 | 0.000886 | EC50 [17]: 0.77 nM; EC50 [18]: 0.77 nM; EC50 [19]: 1.77 nM; fold change of binding EC50 (relative to TC170, lower is better) [20]: 1.81; fold change of binding EC50 (relative to TC170, lower is better) [21]: 1.41; Fold change of KD (relative to TC170, lower is better) [22]: 1.5; fold change of binding EC50 (relative to TC170, lower is better) [23]: 1.07 |

— patent publication US20240026037A1 (Memorial Sloan Kettering, published 2024)
